Experimental data published in the supplement of paper PMC11136658.

Test system: peptide library, one residue held at a place counted from the Y acceptor
Assay: relative phosphorylation of the sub-library (ratio to the mean residue at this position); higher = residue favoured
In short: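 In 384-well plates, purified recombinant kinases were incubated for 90 min with 50 μM ATP containing γ-32P-ATP and biotinylated Tyr-centred peptide libraries, each mixture fixing one residue at a single position between −5 and +5. After capture on streptavidin membranes and rinsing, peptides were quantified by phosphorimaging with ImageQuant. Per-position intensities were scaled to the sum of the 18 (Ser/Thr-free library: 16) randomized residues, then multiplied by that number.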

Sequence of MET, construct: aa956-end, human (P08581 956-1390, looked up): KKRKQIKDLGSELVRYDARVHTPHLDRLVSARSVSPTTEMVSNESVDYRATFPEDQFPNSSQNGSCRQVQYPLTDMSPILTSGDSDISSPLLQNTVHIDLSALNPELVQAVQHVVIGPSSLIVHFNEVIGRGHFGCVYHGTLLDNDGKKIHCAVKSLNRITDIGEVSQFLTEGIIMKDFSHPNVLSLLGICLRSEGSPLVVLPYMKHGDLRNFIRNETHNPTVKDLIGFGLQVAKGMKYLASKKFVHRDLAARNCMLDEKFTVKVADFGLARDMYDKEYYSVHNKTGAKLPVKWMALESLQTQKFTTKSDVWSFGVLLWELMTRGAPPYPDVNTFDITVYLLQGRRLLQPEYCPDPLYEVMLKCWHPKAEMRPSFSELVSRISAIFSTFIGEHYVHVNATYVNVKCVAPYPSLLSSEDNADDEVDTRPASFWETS
Sequence of JAK2, construct: aa809-end plus 9aa C-term extension from Gateway cloning, human (O60674 809-1132, looked up): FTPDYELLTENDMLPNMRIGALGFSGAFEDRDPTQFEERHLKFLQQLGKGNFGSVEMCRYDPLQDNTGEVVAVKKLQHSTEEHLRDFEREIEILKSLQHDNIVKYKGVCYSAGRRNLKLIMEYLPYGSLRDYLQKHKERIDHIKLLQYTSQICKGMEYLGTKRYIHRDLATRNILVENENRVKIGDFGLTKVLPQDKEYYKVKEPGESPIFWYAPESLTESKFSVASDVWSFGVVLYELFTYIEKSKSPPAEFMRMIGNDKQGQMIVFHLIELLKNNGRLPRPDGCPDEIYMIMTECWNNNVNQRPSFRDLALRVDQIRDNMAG

JAK2, construct: aa809-end plus 9aa C-term extension from Gateway cloning, human (from UniProt O60674)
relative phosphorylation
Details | at +1 | at +2 | at +3 | at +4 | at +5 | at -1 | at -2 | at -3 | at -4 | at -5
A fixed | 1.07 | 0.945 | 0.889 | 0.971 | 1.11 | 1.13 | 0.982 | 1.02 | 1.07 | 1.08
D fixed | 0.252 | 0.644 | 0.411 | 0.858 | 0.792 | 1.32 | 0.91 | 1 | 1.04 | 0.999
E fixed | 0.45 | 0.78 | 0.33 | 0.934 | 0.764 | 1.18 | 0.98 | 1.01 | 1.26 | 0.926
F fixed | 1.63 | 1.08 | 1.42 | 1.12 | 1.02 | 1.11 | 0.961 | 1.05 | 1.09 | 1.07
G fixed | 0.48 | 0.786 | 0.788 | 1.13 | 1.25 | 0.999 | 1.14 | 1.18 | 1.36 | 1.1
H fixed | 1.42 | 0.785 | 1.12 | 1.05 | 1.04 | 1.05 | 1.07 | 0.901 | 0.929 | 0.919
I fixed | 1.97 | 0.961 | 1.94 | 0.87 | 0.922 | 1.26 | 1.04 | 0.953 | 0.963 | 1.06
K fixed | 0.447 | 1.23 | 0.52 | 1.11 | 0.962 | 0.659 | 0.998 | 0.825 | 0.861 | 0.903
L fixed | 1.55 | 1.08 | 1.43 | 0.892 | 0.927 | 1.11 | 1.05 | 1.03 | 1.05 | 1.07
M fixed | 1.35 | 1 | 1.25 | 1.15 | 0.946 | 0.87 | 0.794 | 0.901 | 0.997 | 1.05
N fixed | 0.45 | 0.982 | 0.681 | 0.846 | 0.871 | 0.762 | 0.981 | 1.01 | 0.849 | 1.02
P fixed | 0.566 | 1.03 | 1.24 | 1.04 | 1.64 | 1.16 | 1.13 | 1.45 | 1.16 | 1.22
Q fixed | 0.9 | 0.975 | 0.667 | 1.12 | 0.867 | 0.745 | 0.954 | 0.824 | 1.11 | 1.01
R fixed | 0.623 | 1.2 | 0.686 | 1.09 | 0.931 | 0.616 | 0.984 | 0.757 | 0.886 | 0.877
S fixed | 0.814 | 1.02 | 0.893 | 0.966 | 1.1 | 0.987 | 1.05 | 1.02 | 0.772 | 0.927
T fixed | 1.09 | 1.07 | 1.17 | 0.909 | 1.06 | 0.989 | 0.98 | 0.976 | 0.716 | 0.824
V fixed | 1.76 | 1.1 | 1.35 | 0.915 | 0.886 | 1.14 | 0.983 | 1.03 | 0.836 | 0.988
W fixed | 1.18 | 1.32 | 1.23 | 1.04 | 0.914 | 0.909 | 1 | 1.05 | 1.05 | 0.952
pThr fixed | 0.332 | 0.537 | 0.205 | 0.53 | 0.543 | 1.1 | 0.744 | 0.944 | 1 | 0.905
pTyr fixed | 0.814 | 0.927 | 0.422 | 0.803 | 0.643 | 1.59 | 0.983 | 1.35 | 1.4 | 1.15

MET, construct: aa956-end, human (from UniProt P08581)
relative phosphorylation
Details | at +1 | at +2 | at +3 | at +4 | at +5 | at -1 | at -2 | at -3 | at -4 | at -5
A fixed | 1.33 | 1.03 | 0.632 | 0.901 | 1.11 | 0.739 | 1.1 | 0.977 | 1.04 | 1.05
D fixed | 0.433 | 0.808 | 0.32 | 0.658 | 0.938 | 1.86 | 1.52 | 1.64 | 1.4 | 1.27
E fixed | 0.821 | 0.83 | 0.252 | 0.581 | 0.861 | 1.37 | 1.45 | 1.79 | 1.61 | 1.09
F fixed | 1.25 | 1.07 | 1.28 | 1.3 | 1.05 | 0.688 | 0.534 | 0.663 | 0.914 | 0.869
G fixed | 0.609 | 0.616 | 0.564 | 1.02 | 0.906 | 0.478 | 1.21 | 1.22 | 1.21 | 1.11
H fixed | 1.34 | 0.874 | 0.869 | 0.998 | 0.879 | 1.24 | 0.819 | 0.911 | 0.916 | 1
I fixed | 1.4 | 0.913 | 2.4 | 0.797 | 0.796 | 1.7 | 0.711 | 0.529 | 0.737 | 0.721
K fixed | 0.531 | 0.705 | 0.431 | 0.87 | 0.978 | 0.496 | 0.738 | 0.866 | 0.86 | 1.19
L fixed | 0.758 | 0.935 | 1.9 | 0.771 | 1.02 | 1.06 | 0.704 | 0.558 | 0.728 | 0.724
M fixed | 0.84 | 0.833 | 1.43 | 0.883 | 0.965 | 0.774 | 0.583 | 0.596 | 0.746 | 0.733
N fixed | 0.574 | 1.29 | 0.537 | 0.875 | 1.02 | 1.26 | 1.16 | 1.37 | 0.984 | 0.995
P fixed | 0.442 | 0.961 | 1.36 | 1.09 | 1.21 | 0.659 | 1.59 | 1.22 | 1.18 | 1.16
Q fixed | 1.21 | 1.03 | 0.578 | 0.994 | 0.932 | 1.12 | 1.17 | 1.1 | 1.07 | 0.976
R fixed | 0.887 | 1.07 | 0.554 | 1.06 | 1.05 | 0.597 | 0.88 | 0.918 | 0.995 | 1.18
S fixed | 1.11 | 1.25 | 0.616 | 0.957 | 1.2 | 0.704 | 1.34 | 1.27 | 0.948 | 1
T fixed | 1.26 | 1.18 | 0.723 | 0.899 | 1.02 | 1.11 | 0.99 | 0.977 | 0.767 | 0.893
V fixed | 1.99 | 1.07 | 1.72 | 0.851 | 0.867 | 1.21 | 0.868 | 0.605 | 0.711 | 0.735
W fixed | 1.22 | 1.54 | 1.84 | 2.49 | 1.2 | 0.931 | 0.629 | 0.784 | 1.19 | 1.31
pThr fixed | 1.16 | 1.4 | 0.271 | 0.399 | 0.597 | 2.21 | 1.93 | 1.77 | 1.38 | 1.32
pTyr fixed | 3.19 | 2.63 | 0.524 | 0.871 | 0.771 | 4.16 | 1.47 | 1.82 | 2.14 | 1.64
